The values below come from article PMC12098869, “An mRNA-display derived cyclic peptide scaffold reveals the substrate binding interactions of an N-terminal cysteine oxidase” (Nature Communications, 2025).

Several values for one entry are separate records, joined by “and”; a condition that tells them apart may be missing. Equal entries are not always repeated. Where a SMILES comes first, the peptide text is derived from it. Bridges are numbered along the chain shown (N, C = ends). Where no end group is shown, it is not given here. [ ]: non-standard residue; d: D form.

Experiment [1] concerns the target T1, ADO-D206N (Homo sapiens, UniProt Q96SZ5, D206N).
T1 construct: Full-length human ADO (Uniprot ID: Q96SZ5) was cloned; made in house; host or cells: E. coli Rosetta2(DE3)
T1 sequence (Q96SZ5 1-270 D206N): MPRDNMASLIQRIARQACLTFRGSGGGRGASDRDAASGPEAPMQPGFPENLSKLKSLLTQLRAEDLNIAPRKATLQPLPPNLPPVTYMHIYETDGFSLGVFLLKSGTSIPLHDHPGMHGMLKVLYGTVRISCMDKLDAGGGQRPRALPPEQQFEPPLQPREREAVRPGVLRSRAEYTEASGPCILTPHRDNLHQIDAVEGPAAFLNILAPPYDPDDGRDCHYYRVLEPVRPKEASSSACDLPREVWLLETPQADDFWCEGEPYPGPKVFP
Kind of experiment: SPR binding of substrate peptides (native and oxidised) to ADO variant. To be noted: up to 100 μM. From the text: (§1) Having verified the accuracy of the substrate analogue-bound crystal structures using MD simulations, key active site residues were mutated to assess their impact on binding and activity using SPR and LCMS. They were chosen based on their proximity to the substrate moieties and their conservation across species, including plants, where NCOs are called plant cysteine oxidases (PCOs; Fig. 5)[9],[10]. Two representative substrates, RGS5_2-15 and IL32_2-15 (a synthetic peptide corresponding to the methionine excised N-terminus of IL32, residues 2–15), were tested to compare interactions with different amino acid sequences.
ADO cannot bind oxidised peptide or protein sequences (i.e. those bearing Nt-Cys sulfinic acid/sulfinate)[36]. To explore whether ADO-D206 plays a role in product release through protonation or charge repulsion, the binding of oxidised RGS5_2-15 and IL32_2-15 to ADO-D206N was monitored by SPR (Supplementary Fig. 22). […] Given its position in the active site (and the fact that many ADO-D206 variants bind substrate), this implies that ADO-D206 contributes to ADO activity through an interaction with O2 during turnover.
SPR measurements were made using a Biacore T200 (Cytiva) instrument and data were analysed using the Biacore Insight Evaluation Software. […]
A general note: SPR reads the build-up and loss of mass on a sensor chip optically.

In experiment [2] the target is 2-aminoethanethiol dioxygenase (ADO), full-length human, N-terminally His-tagged and biotinylated (pQE80L-Navi-ADO) (human) (UniProt Q96SZ5). Kind of experiment: SPR; biotinylated ADO or ADO mutant immobilised on a Biotin CAP chip (~2500-3000 RU), substrate peptide injected; Biacore T200, 4 °C; 20 mM HEPES pH 7.5, 500 mM NaCl, 10 mM DTT, 0.1% tween-20; 50 µL/minute; multi-cycle or single-cycle mode not given; each cell is one of three independent measurements.

Experiment [3] has as its target ADO-D206N, N-terminally His-tagged and biotinylated (human) (UniProt Q96SZ5). The description is as above.
Experiment [4] has as its system ADO-D206A. Kind of experiment: SPR binding of substrate peptides to ADO variant. Also noted: species or system human.
From the text: as §1
(§2) SPR measurements were made using a Biacore T200 (Cytiva) instrument and data were analysed using the Biacore Insight Evaluation Software. Biotinylated-ADO was immobilised on a Biotin CAP chip (Cytiva) with a target density of ∼2500–3000 RU and peptide/protein substrates were injected over the chip. Experiments were conducted at 4 °C using both multi-cycle (fit using the equilibrium steady state affinity 1:1 binding model) and single-cycle kinetics mode (fit using a 1:1 binding model). A buffer comprising 20 mM HEPES pH 7.5, 500 mM NaCl, 10 mM DTT, and 0.1% (v/v) tween-20 was used as the running buffer at a flow rate of 50 μL/minute.
Supplementary Figure 20. SPR analysis of ADO variants with RGS5 peptide. […]

For experiment [5], the target named is T2, ADO-I109A (Homo sapiens, UniProt Q96SZ5, I109A).
T2 construct: Full-length human ADO (Uniprot ID: Q96SZ5) was cloned; made in house; host or cells: E. coli Rosetta2(DE3)
Kind of experiment: SPR binding of substrate peptides to ADO variant.
From the text: as §1, §2
(§3) Supplementary Figure 20. SPR analysis of ADO variants with RGS5 peptide. (Left) Representative SPR sensorgram for the titration of RGS52-15 with amino acid substituted ADO. (Right) Fits of the equilibrium responses from the sensorgram in the left panels to a 1:1 binding model. The Kᴅ values are shown (Kᴅ given as the geometric mean of a minimum of three independent SPR measurements (n=3) with standard error). […] The […]
(§4) sensorgram is shown in red and the fit to the data is shown in black. The concentrations of RGS52-15 used in the titration are 25.6 nM, 64 nM, 160 nM, 400 nM, 1000 nM. The Kᴅ value is shown (Kᴅ given as the geometric mean of a minimum of three independent SPR measurements). Source data are provided as Source Data file.
(§5) (1 picture or pasted object on this page, not shown here)
(§6) Supplementary Figure 21. SPR analysis of ADO variants with IL32 peptide. (Left) Representative SPR sensorgram for the titration of IL322-15 with amino acid substituted ADO. (Right) Fits of the equilibrium responses from the sensorgram in the left […]
(§7) sensorgram is shown in red and the fit to the data is shown in black. The concentrations of IL322-15 used in the titration are 25.6 nM, 64 nM, 160 nM, 400 nM, 1000 nM. The Kᴅ value is shown (Kᴅ given as the geometric mean of a minimum of three independent

The target in experiment [6] is T3, ADO-Y212A (Homo sapiens, UniProt Q96SZ5, Y212A).
T3 construct: Full-length human ADO (Uniprot ID: Q96SZ5) was cloned; made in house; host or cells: E. coli Rosetta2(DE3)
Kind of experiment: SPR binding of substrate peptides to ADO variant.
From the text: as §1, §2, §3, §4, §5, §6, §7

The target of experiment [7] is T4, ADO-Y87F (Homo sapiens, UniProt Q96SZ5, Y87F).
T4 construct: Full-length human ADO (Uniprot ID: Q96SZ5) was cloned; made in house; host or cells: E. coli Rosetta2(DE3)
In words: SPR binding of substrate peptides to ADO variant.
From the text: as §1, §2, §3, §4, §5, §6, §7

Experiment [8] has as its target 2-aminoethanethiol dioxygenase (ADO), wild type, biotinylated (pQE80L-Navi-ADO) (human). Kind of experiment: SPR; single-cycle kinetics (SCK), 1:1 binding model; biotinylated ADO or variant immobilised on a Biotin CAP chip, peptide injected at 25.6, 64, 160, 400, 1000 nM; 4 °C; 20 mM HEPES pH 7.5, 500 mM NaCl, 10 mM DTT, 0.1% (v/v) tween-20; 50 μL/minute.
The target in experiment [9] is T5, 2-aminoethanethiol dioxygenase (ADO), full-length human, N-terminally His-tagged and biotinylated … (human, UniProt Q96SZ5 1-270, biotin (biotinylated during expression, 0.2 mM biotin added)).
T5 construct: 2-aminoethanethiol dioxygenase (ADO), human, UniProt Q96SZ5, full length; Immobilised through its biotin on a Biotin CAP chip for SPR; also called wild type ADO; Biotinylated-ADO; source: E. coli Rosetta2(DE3), purified (Ni-NTA, SEC); not shown: biotinylation tag (from the vector pQE80L-Navi), N-terminal, kept
T5 sequence (looked up): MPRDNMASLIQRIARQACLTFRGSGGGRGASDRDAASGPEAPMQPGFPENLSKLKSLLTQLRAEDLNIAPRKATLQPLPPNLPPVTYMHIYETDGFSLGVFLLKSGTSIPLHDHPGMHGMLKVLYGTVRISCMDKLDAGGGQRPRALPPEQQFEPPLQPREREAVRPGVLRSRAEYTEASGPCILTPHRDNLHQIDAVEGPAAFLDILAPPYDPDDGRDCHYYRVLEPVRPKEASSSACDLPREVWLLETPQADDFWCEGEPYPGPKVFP
Kind of experiment: SPR; single-cycle kinetics (1:1 binding model); biotinylated ADO immobilised on a Biotin CAP chip (~2500-3000 RU), cyclic peptide injected; Biacore T200, 4 °C; 20 mM HEPES pH 7.5, 500 mM NaCl, 10 mM DTT, 0.1% tween-20; 50 µL/minute; each cell is one of three independent measurements. As to conditions: both partners purified.

For experiment [10], the target named is T6, ADO-I109A (human, UniProt Q96SZ5 1-270, I109A, biotin).
T6 construct: 2-aminoethanethiol dioxygenase (ADO), human, UniProt Q96SZ5, full length; Made by site-directed mutagenesis of the SPR construct; source: E. coli Rosetta2(DE3), purified (Ni-NTA, SEC); not shown: biotinylation tag (from the vector pQE80L-Navi), N-terminal, kept
T6 sequence (looked up): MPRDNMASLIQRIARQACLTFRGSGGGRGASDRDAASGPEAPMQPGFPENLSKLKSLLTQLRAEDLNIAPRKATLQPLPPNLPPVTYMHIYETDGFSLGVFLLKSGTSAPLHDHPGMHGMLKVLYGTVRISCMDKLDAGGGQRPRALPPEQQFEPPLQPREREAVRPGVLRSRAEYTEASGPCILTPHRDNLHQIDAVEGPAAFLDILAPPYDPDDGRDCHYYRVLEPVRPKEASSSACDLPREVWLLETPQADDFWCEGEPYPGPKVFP
In words: SPR; biotinylated ADO (wild type or mutant) immobilised on a Biotin CAP chip, substrate peptides injected; 4 °C; 20 mM HEPES pH 7.5, 500 mM NaCl, 10 mM DTT, 0.1% tween-20; multi-cycle or single-cycle mode not given. To be noted: both partners purified.

T3 sequence (Q96SZ5 whole entry Y212A): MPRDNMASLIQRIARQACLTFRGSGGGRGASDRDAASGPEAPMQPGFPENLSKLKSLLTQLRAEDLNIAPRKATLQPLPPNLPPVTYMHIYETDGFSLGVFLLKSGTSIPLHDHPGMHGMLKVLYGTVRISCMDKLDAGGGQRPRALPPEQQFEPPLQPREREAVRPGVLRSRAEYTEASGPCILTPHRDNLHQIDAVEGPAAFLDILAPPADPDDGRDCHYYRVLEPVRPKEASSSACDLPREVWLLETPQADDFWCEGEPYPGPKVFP
T4 sequence (Q96SZ5 whole entry Y87F): as the sequence (Q96SZ5 whole entry Y212A) above, with Y87F, A212Y counted along it

Regarding “oxidised IL32_2-15: IL32_2-15 bearing Nt-Cys sulfinic acid/sulfinate, obtained through pre-incubation with ADO ([Cys sulfinic acid]FPKVLSDDMKKLK)”, the “binding of oxidised peptide to ADO-D206N (in words)” value in experiment [1] is on record as “No association was observed”.

With “oxidised RGS5_2-15: RGS5_2-15 bearing Nt-Cys sulfinic acid/sulfinate, obtained through pre-incubation with ADO ([Cys sulfinic acid]KGLAALPHSCLER)”, the “binding of oxidised peptide to ADO-D206N (in words)” value in experiment [1] is “No association was observed”.

For the molecule “RGS5(2-15), synthetic peptide corresponding to the methionine excised N-terminus of RGS5, residues 2 to 15 (from UniProt O15539 2-15)”, the Kd – broadly, the equilibrium constant for the complex coming apart – in experiment [2] was 609 nM and 637 nM and 675 nM; in experiment [3], 149 nM and 155 nM and 152 nM.

On to “IL32(2-15), synthetic peptide corresponding to the methionine excised N-terminus of IL32, residues 2-15 (from UniProt P24001 2-15)”, for which the Kd in experiment [2] is 372 nM and 449 nM and 573 nM; in experiment [3], 68.4 nM and 73.3 nM and 67.5 nM.

Consider `CSCC[C@H](NC(=O)[C@H](CC(=O)O)NC(=O)[C@H](CC(=O)O)NC(=O)[C@H](CO)NC(=O)[C@H](CC(C)C)NC(=O)[C@@H](NC(=O)[C@H](CCCCN)NC(=O)[C@@H]1CCCN1C(=O)[C@H](Cc1ccccc1)NC(=O)[C@@H](N)CS)C(C)C)C(=O)N[C@@H](CCCCN)C(=O)N[C@@H](CCCCN)C(=O)N[C@@H](CC(C)C)C(=O)N[C@@H](CCCCN)C(N)=O` [14-mer IL32] (H-CFPKVLSDDMKKLK-NH2; C-terminus assumed), for which the “binding to ADO-D206A (in words)” value in experiment [4] is recorded as “no binding”. In addition, the “fold increase in KD relative to wild type ADO” value in experiment [5] is on record as 35 fold. The KD in experiment [6] (replicate 2) and in experiment [6] (replicate 3) was 24.7 µM each time.

As to `CC(C)C[C@H](NC(=O)CNC(=O)[C@H](CCCCN)NC(=O)[C@@H](N)CS)C(=O)N[C@@H](C)C(=O)N[C@@H](C)C(=O)N[C@@H](CC(C)C)C(=O)N1CCC[C@H]1C(=O)N[C@@H](Cc1c[nH]cn1)C(=O)N[C@@H](CO)C(=O)N[C@@H](CS)C(=O)N[C@@H](CC(C)C)C(=O)N[C@@H](CCC(=O)O)C(=O)N[C@@H](CCCNC(=N)N)C(N)=O` [14-mer RGS5] (H-CKGLAALPHSCLER-NH2; C-terminus assumed), the “binding to ADO-D206A (in words)” value in [4] was “no binding”. In addition, the KD in experiment [7] (replicate 1) and in experiment [7] (replicate 3) was 339 nM in each case. In addition, the “fold increase in KD relative to wild type ADO” value in experiment [5] worked out at 2 fold.

B1: CP6-L8K-Cys (peptide)
peptide: {CH2CO}-YIVKTFWK(Cys)GSHRQC
modifications: thioether N-14
notes: the substitution L8K is to be applied, Cys on the sidechain amine of K8; Branched peptide: the Cys is not in the main chain; source: synthetic peptide
Turning to B1, the Kd is 13 nM in [8]; 11 nM and 13.1 nM and 13.7 nM in experiment [9].

B2: CP6-L8K-Ser (peptide)
peptide: {CH2CO}-YIVKTFWK(Ser)GSHRQC
modifications: thioether N-14
notes: the substitution L8K is to be applied, Ser on the sidechain amine of K8; Branched peptide: the Ser is not in the main chain; also called CP-L8K-Ser; source: synthetic peptide
For the molecule B2, the Kd in experiment [8] is 21 nM; in experiment [9], 17.2 nM and 20.6 nM and 26.8 nM.

B3: IL32_(2-15), synthetic peptide corresponding to the methionine excised N-terminus of IL32, residues 2-15 (peptide, UniProt P24001 2-15, looked up)
peptide: CFPKVLSDDMKKLK
notes: interleukin 32 (IL32), residues 2-15 (methionine excised N-terminus); peptide synthesis is in the supplementary methods; source: synthetic peptide
On to B3, for which the “fold increase in KD relative to wild type ADO” value in [10] worked out at 35 fold.

B4: RGS5_(2-15), synthetic peptide corresponding to the methionine excised N-terminus of RGS5, residues 2 to 15 (peptide, UniProt O15539 2-15, looked up)
peptide: CKGLAALPHSCLER
notes: RGS5, human, residues 2 to 15 (methionine excised N-terminus); peptide synthesis is in the supplementary methods; source: synthetic peptide
Regarding B4, the “fold increase in KD relative to wild type ADO” value in experiment [10] was determined as 2 fold.
